Series [1] addresses T1, MnoR (Mycobacterium smegmatis, UniProt A0R5L8 1-216).
T1 sequence: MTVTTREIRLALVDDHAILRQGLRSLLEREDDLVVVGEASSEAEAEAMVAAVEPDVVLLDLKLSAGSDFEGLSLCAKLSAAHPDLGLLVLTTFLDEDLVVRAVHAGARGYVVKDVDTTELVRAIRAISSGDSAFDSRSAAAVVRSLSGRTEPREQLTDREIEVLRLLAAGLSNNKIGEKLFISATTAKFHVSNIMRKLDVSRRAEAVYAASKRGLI
Nature of the series: EMSA; 100x polyA instead of salmon sperm DNA; EMSA: 50 mM Tris-HCl (pH not stated), 100 mM NaCl, 10 mM MgCl2, 100 ug/ml BSA, 5% glycerol, 5 nM DNA, 30 min 25 °C, 5% native gel at 4 °C; MST: PBS-T, room temperature, DNA 60 nM (perfect), 15 nM (2MM), 120 nM (4MM). Conditions: protein: recombinant, tags: N-terminal 6xHis, chain copies: 2, label: 5'-Cy5 on strand 1. Background: A gel shift assay detects complexes by their altered migration in electrophoresis.

In series [2] the target is T1, MnoR. Nature of the series: MST; PBS-T; EMSA: 50 mM Tris-HCl (pH not stated), 100 mM NaCl, 10 mM MgCl2, 100 ug/ml BSA, 5% glycerol, 5 nM DNA, 30 min 25 °C, 5% native gel at 4 °C; MST: PBS-T, room temperature, DNA 60 nM (perfect), 15 nM (2MM), 120 nM (4MM). As to conditions: protein: recombinant; tags: N-terminal 6xHis; chain copies: 2; label: 5'-Cy5 on strand 1; blunt.

B1: mno 2MM (dsDNA)
DNA 1: ACCTGGCGGATCTGAGCCCGGCAGGCGATCCGCACACCGGTACCGTGCTGGTGGGCGCGAGCCCCGAGTTGCTGGTCGCCCGCGACG
DNA 2: CGTCGCGGGCGACCAGCAACTCGGGGCTCGCGCCCACCAAGCACGGTACCGGTGTGCGGATCGCCTGCCGGGCTCAGATCCGCCAGGT
On to B1, for which the binding result in series [1] was “binds”.

B2: mno 3MM (dsDNA)
DNA 1: GCTGGAGGAGGCGTTCACCGCTGACTGGCTCGCCCAGCACTCCTAAGCCGGTGGGCGCCGTCACCCGCGGCACCACCGGTTACAACC
DNA 2: GGTTGTAACCGGTGGTGCCGCGGGTGACGGCGCCCACCGGCTTAGGAGTGCTGGGCGAGCCAGTCAGCGGTGAACGCCTCCTCCAGC
As to B2, the binding result in series [1] (blunt) is given as “binds”.

B3: mno perfect motif (dsDNA)
DNA 1: GCCTGAGCGATCTGGGGCTCTGAGCACCCTCGCCCACCGGTGAGCCGCCGGTGGGCGGCCACCCTGCCCGACCGGACAGTTCTGCCG
DNA 2: CGGCAGAACTGTCCGGTCGGGCAGGGTGGCCGCCCACCGGCGGCTCACCGGTGGGCGAGGGTGCTCAGAGCCCCAGATCGCTCAGGC
For the molecule B3, the Kd in series [2] is 2370 nM.

B4: mno 4MM (dsDNA)
DNA 1: CACGCTGATCACGTCCGACGTCGACGAGCGCGACCAGCCGTTCATCACCGGTGAGCGCACCAAGGAAGGCTTCTTCCGCGTGAAGAA
DNA 2: TTCTTCACGCGGAAGAAGCCTTCCTTGGTGCGCTCACCGGTGATGAACGGCTGGTCGCGCTCGTCGACGTCGGACGTGATCAGCGTG
Turning to B4, the binding result in series [1] (blunt) is reported as “binds”.

What is called Kd is a measure of binding affinity in units of concentration.

Values taken from paper PMC11303327, “MnoSR removal in Mycobacterium smegmatis triggers broad transcriptional response to 1,3-propanediol and glucose as sole carbon sources”.
